Measured values as given in PMC12006399, “RNase1-driven ALK-activation is an oncogenic driver and therapeutic target in non-small cell lung cancer” (Signal Transduction and Targeted Therapy, 2025).

Columns and labels:
[1] = biological target: ALK (Homo sapiens) (UniProt Q9UM73); conditions: cited from earlier work
[2] = biological target: EphA4 (Homo sapiens) (UniProt P54764); conditions: cited from earlier work
[3] = biological target: T1, endogenous wild-type ALK in H1299 human lung cancer cells (human (endogenous in H1299), UniProt Q9UM73 19-1620); experiment: ELISA; ALK captured from H1299 lysate on plate-bound ALK antibody (3 µg/ml); recombinant RNase1 at different concentrations in lysis buffer, overnight at 4 °C; streptavidin-HRP, TMB, OD 450 nm; Kd by GraphPad Prism; conditions: one partner purified
T1 construct: ALK receptor tyrosine kinase, wild type, endogenous in H1299 human lung cancer cells; also called WT ALK; source: endogenous, H1299 lysate; endogenous, in H1299 cells
T1 sequence (Q9UM73 19-1620): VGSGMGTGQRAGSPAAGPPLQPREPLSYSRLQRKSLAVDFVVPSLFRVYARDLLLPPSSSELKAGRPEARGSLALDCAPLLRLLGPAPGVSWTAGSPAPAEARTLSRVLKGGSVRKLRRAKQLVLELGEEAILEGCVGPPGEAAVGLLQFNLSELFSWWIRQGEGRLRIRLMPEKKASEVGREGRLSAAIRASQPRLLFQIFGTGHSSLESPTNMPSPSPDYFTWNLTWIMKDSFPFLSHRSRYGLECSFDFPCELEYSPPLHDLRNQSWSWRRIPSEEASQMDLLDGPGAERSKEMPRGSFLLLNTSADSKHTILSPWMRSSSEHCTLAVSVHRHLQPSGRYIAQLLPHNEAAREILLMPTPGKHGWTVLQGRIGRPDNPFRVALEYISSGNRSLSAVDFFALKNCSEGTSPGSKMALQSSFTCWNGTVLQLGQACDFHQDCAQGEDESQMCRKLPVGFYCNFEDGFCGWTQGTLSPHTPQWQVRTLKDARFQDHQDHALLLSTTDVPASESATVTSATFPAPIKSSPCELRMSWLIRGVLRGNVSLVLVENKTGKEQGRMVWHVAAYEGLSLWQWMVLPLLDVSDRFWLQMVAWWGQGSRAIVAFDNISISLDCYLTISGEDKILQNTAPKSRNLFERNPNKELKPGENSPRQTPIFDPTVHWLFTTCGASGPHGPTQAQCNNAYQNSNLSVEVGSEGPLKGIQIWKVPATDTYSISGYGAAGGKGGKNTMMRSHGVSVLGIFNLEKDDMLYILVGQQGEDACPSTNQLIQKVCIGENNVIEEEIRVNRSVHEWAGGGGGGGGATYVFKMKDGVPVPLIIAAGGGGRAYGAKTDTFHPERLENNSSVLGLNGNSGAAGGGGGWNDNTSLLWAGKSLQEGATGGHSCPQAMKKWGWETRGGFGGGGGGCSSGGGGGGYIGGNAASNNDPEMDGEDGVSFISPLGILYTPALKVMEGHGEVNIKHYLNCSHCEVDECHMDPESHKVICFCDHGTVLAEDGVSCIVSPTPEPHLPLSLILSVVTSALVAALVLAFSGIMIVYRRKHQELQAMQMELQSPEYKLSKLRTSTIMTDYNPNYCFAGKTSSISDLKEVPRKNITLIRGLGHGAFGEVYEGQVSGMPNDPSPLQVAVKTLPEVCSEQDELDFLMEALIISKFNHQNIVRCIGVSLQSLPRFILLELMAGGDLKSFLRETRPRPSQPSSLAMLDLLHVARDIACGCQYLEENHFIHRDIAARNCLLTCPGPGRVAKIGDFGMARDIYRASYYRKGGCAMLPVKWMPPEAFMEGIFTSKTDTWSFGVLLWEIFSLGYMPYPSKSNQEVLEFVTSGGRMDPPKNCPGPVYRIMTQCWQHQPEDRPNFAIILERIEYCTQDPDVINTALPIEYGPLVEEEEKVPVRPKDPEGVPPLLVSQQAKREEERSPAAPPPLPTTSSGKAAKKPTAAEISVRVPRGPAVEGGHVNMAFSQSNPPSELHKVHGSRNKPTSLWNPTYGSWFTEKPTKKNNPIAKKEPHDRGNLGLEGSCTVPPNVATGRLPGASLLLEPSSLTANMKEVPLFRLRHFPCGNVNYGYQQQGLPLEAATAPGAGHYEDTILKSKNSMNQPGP

Sequence of EphA4 (Homo sapiens) (P54764 20-547): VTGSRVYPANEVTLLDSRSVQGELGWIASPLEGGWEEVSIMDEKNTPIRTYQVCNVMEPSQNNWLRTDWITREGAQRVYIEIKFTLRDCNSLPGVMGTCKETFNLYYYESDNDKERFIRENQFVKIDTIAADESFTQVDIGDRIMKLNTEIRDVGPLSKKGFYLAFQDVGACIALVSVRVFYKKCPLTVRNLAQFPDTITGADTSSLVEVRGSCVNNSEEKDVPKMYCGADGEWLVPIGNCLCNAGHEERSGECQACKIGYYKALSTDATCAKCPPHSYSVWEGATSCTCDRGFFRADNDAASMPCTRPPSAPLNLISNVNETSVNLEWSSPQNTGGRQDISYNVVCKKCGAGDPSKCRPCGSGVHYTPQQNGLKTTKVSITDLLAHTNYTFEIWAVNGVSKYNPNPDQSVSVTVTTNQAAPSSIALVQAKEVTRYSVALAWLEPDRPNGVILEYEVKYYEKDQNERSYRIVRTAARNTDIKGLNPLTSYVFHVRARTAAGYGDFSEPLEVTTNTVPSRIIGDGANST
Sequence of ALK (Homo sapiens) (Q9UM73 19-1038): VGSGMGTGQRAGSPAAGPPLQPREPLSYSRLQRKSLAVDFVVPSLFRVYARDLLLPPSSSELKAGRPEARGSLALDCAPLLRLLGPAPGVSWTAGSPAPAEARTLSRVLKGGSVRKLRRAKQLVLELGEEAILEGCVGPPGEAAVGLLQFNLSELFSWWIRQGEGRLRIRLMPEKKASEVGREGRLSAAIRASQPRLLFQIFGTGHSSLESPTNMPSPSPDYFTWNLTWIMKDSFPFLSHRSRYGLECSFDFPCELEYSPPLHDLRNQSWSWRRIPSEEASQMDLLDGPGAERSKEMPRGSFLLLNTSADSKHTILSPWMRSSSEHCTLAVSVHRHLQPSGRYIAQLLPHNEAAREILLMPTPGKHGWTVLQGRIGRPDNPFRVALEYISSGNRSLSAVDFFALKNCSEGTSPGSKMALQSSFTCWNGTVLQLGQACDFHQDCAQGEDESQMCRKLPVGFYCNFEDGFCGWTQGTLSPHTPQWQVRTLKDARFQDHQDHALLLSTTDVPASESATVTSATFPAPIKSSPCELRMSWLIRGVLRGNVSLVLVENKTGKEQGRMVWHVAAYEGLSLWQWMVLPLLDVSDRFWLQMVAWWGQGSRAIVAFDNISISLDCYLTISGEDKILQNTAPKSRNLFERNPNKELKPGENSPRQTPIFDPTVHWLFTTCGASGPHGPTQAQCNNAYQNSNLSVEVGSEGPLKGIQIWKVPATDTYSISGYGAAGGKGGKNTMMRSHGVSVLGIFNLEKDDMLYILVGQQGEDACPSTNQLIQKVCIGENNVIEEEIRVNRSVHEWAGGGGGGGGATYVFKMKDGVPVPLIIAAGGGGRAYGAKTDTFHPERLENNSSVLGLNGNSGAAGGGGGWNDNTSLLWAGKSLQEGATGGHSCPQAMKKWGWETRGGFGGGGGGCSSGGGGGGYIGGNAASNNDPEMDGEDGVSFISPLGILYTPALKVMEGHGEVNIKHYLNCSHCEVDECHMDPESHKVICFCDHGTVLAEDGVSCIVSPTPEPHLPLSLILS

For ALKAL2 (from UniProt Q6UX46), the Kd [1] is listed as 40 nM.

In the case of RNase1 (from UniProt P07998), the Kd [2] is given as 92.4 nM.

B1: recombinantly purified 6x N-terminal His-tagged RNase1 (ligand, human, UniProt P07998 29-156, looked up)
chain: KESRAKKFQRQHMDSDSSPSSSSTYCNQMMRRRNMTQGRCKPVNTFVHEPLVDVQNVCFQEKVTCKNGQGNCYKSNSSMHITDCRLTNGSRYPNCAYRTSPKERHIIVACEGSPYVPVHFDASVEDST
notes: human secretory ribonuclease 1 (RNase1); cDNA cloned into the prokaryotic vector PSJ3 with N-terminal 6His tag; a bacterial construct is likely to lack the signal peptide (surmise); also called R1; human secretory ribonuclease 1; source: E. coli BL21, purified (HisTrap column); not shown: His6, N-terminal, kept
Molecule B1 has a Kd [3] of 43 nM.
